The values that follow come from paper PMC2811003 (Nucleic Acids Research, 2009).

For data set [1], the target named is T1, PriB wild type (Neisseria gonorrhoeae FA1090, UniProt Q5F924 1-100).
T1 sequence: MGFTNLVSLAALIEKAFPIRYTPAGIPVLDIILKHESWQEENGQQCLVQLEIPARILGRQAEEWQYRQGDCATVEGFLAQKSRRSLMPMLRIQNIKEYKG
The experiment in a line: fluorescence anisotropy. A general note: In fluorescence polarisation assays a small probe gives low polarisation when free and higher when bound to something large.

Data set [2] concerns the molecule itself. In words: crystal structure.
The target in data set [3] is T2, His-tagged Neisseria gonorrhoeae PriA (Neisseria gonorrhoeae, UniProt Q5F6V8 1-729).
T2 sequence (looked up): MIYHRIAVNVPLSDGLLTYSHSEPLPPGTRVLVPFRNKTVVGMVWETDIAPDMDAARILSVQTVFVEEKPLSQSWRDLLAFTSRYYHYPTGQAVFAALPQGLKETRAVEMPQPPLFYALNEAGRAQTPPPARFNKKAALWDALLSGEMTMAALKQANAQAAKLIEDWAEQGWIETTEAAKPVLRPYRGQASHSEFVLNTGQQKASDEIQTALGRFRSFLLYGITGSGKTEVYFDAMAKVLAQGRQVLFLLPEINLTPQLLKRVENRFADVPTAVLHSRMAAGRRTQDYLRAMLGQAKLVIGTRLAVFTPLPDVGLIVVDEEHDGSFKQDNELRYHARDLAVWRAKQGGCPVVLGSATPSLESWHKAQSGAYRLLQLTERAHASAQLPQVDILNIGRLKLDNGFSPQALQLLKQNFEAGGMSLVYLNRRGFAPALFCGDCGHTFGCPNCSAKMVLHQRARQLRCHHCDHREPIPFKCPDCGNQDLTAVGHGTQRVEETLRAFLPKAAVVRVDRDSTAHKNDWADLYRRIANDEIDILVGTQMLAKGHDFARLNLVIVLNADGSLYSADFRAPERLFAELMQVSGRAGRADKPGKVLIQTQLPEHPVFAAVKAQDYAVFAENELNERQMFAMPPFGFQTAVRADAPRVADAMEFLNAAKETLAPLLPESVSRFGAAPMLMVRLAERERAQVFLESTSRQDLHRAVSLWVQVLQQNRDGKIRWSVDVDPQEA
In words: pull-down.

In data set [4] the target is T3, Neisseria gonorrhoeae PriA (Neisseria gonorrhoeae, UniProt Q5F6V8 1-729).
T3 sequence: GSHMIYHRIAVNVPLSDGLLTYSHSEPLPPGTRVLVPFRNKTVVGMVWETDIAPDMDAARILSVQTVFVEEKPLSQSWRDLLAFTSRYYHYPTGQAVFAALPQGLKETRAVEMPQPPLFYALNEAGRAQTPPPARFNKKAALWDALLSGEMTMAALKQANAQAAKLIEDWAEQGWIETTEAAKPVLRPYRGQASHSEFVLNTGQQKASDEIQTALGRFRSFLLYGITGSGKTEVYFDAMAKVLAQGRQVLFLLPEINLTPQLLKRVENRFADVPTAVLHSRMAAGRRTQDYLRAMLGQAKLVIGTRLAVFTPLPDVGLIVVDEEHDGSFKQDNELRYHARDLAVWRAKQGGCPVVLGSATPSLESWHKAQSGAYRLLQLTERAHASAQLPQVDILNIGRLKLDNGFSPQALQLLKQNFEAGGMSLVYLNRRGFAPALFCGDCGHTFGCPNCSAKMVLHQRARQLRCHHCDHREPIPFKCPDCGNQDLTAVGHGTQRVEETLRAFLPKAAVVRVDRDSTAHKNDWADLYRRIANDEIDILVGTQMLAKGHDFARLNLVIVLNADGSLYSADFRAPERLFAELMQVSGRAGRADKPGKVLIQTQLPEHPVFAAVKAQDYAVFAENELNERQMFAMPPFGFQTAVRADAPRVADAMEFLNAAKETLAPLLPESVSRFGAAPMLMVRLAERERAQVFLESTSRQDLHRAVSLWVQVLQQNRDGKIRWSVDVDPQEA
The experiment in a line: fluorescence polarisation.

Data set [5] deals with T4, PriB E41A (Neisseria gonorrhoeae FA1090, UniProt Q5F924 1-100, E41A).
T4 sequence: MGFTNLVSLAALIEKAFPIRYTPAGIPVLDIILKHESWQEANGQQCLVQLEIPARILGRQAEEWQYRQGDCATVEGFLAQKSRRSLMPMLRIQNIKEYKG
In words: fluorescence anisotropy.

Data set [6] has as its target T5, PriB Y21A (Neisseria gonorrhoeae FA1090, UniProt Q5F924 1-100, Y21A).
T5 sequence: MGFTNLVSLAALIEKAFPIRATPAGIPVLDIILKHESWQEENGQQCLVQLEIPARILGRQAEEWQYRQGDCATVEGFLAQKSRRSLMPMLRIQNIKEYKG
The experiment in a line: fluorescence anisotropy.

The Kd is the concentration at which binding is half-saturated. A low value points to tighter binding. In turn, GCCGTGATCACCAATGCAGATTGACGAACCTTTGCTCCAGTAACC (ssDNA) [45-base fluoro-ssDNA] displayed a Kd in data set [1] of 1020 ± 34 nM.

B1: Neisseria gonorrhoeae PriB (natural protein)
chain: GSHMGFTNLVSLAALIEKAFPIRYTPAGIPVLDIILKHESWQEENGQQCLVQLEIPARILGRQAEEWQYRQGDCATVEGFLAQKSRRSLMPMLRIQNIKEYKG
As usually defined, the stoichiometry N is the number of molecules, sites or subunits per partner or assembly. On to B1, for which the “stoichiometry N” value in data set [2] came to 2. Also, in data set [3], the binding result is recorded as “binds”.

B2: FITC-labeled Neisseria gonorrhoeae PriB (natural protein)
chain: GSHMGFTNLVSLAALIEKAFPIRYTPAGIPVLDIILKHESWQEENGQQCLVQLEIPARILGRQAEEWQYRQGDCATVEGFLAQKSRRSLMPMLRIQNIKEYKG
modifications: FITC (fluorescein isothiocyanate) label, 0.34 FITC per PriB dimer; labeled residue not stated
Molecule B2 had a Kd in data set [4] of 137 nM.
On to AAGCACAATTACCCACGC (ssDNA) [18-base fluoro-ssDNA], for which, in data set [1], the Kd turned out to be 662 ± 37 nM.
With GCCGTGATCACCAATGCAGATTGACGAACCTTTGCC (ssDNA) [36-base fluoro-ssDNA], the Kd in data set [1] worked out at 475 ± 20 nM; in data set [5], 139 ± 26 nM; in data set [6], 641 ± 41 nM.
